{"source": "patent US20090118481A1", "molecular_target": "LS-Rg, chimeric protein of the extracellular domain of human L-selectin joined to the Fc domain of a human G2 immunoglobulin (human) (UniProt P14151)", "sequence (P14151 39-332, change not shown)": "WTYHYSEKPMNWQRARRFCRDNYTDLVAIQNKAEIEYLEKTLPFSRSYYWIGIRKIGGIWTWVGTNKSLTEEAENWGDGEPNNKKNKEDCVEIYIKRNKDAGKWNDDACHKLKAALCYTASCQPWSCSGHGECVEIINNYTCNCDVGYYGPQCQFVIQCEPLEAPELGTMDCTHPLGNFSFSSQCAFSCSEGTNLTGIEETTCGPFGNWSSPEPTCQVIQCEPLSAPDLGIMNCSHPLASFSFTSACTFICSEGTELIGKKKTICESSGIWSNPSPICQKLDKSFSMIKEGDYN", "assay": "competition of unlabeled antibody with radio-labeled 2'-F RNA ligand LF1807 for purified LS-Rg", "data": [{"substance": "DREG-56, blocking monoclonal anti-L-selectin antibody", "values": [{"measurement": "concentration giving complete inhibition", "value": 300, "unit": "nM"}]}]}
